According to paper doi:10.1101/2024.12.17.628836:
“And” between values parts separate entries of the source, which are not always exact repeats. Equal values may be shown once.

Target: standard human 20S proteasome, immunopurified from HEK293-EBNA cells (human)
Assay: mass photometry

percent of total 20S bound at a PA200:20S molar ratio of 8: > 60%
stoichiometry N (PA200 per 20S): 1 and 2
Substance: recombinant human PA200 (proteasome activator 200) (from UniProt Q14997 1-1843) (natural protein)
